This is an account of results in patent US20230348569A1.

Positions count from the first letter of the chain named.

The target in test [1] is SARS-CoV-2-S-RBD-mmH (SARS-CoV-2). The following applies: remark: other sources report otherwise.
Test [2] has as its target SARS-CoV-2 RBD extracellular domain expressed with a C-terminal myc-myc-hexahistidine tag (SARS-COV-2 RBD-MMH) (SARS-CoV-2). Conditions: remark: other sources report otherwise.

B1: mAb10998 (antibody, V domains shown)
VH: EVQLVESGGGLVHPGGSLRLSCAASGLTVSSNYMSWVRQAPGKGLEWVSVIYSGGSTYYADSVKGRFTISRHNSKNTLFLQMNSLRAEDTAVYYCARDRPITGTTLDVWGQGTTVTVSS
VL: DIQMTQSPSSLFASVGDRVTITCRASQSISSYLNWYQQKPGKAPKLLIYAASSLQSGVPSRFSGSGSGTDFTLTISSLQPEDFAFYYCQQTYSTPPITFGQGTRLEIK
For B1, the Binding Signal (absorbance at 450 nm) (absorbance at 450 nm) in test [1] was 2.83. In test [2], this molecule had a t½ (dissociative half-life) of 0.5 min.

B2: mAb11004 (antibody, V domains shown)
VH: QVQLVESGGGVVQPGRSLRLSCVASGFTFSIYGMDWVRQAPGKGLEWVAVISYDGSNKYYADSVKGRFTISRDNSKNTLYLQMNSLRPEDTAVYYCAKDREAAADAFDIWGQGTMVTVSS
VL: DIQMTQSPSSVSASVGDRVTITCRASQGISSWLAWYQQKPGKAPKLLIYAASSLHSGVPSRFSGSGSGTDFTLTISSLQPEDFATYYCQQANSFRLTFGGGTKVEIK
Take B2: the Binding Signal (absorbance at 450 nm) (absorbance at 450 nm) in test [1] came out at 2.91. Further, the t½ (dissociative half-life) in test [2] turned out to be 3.7 min.

B3: mAb11006 (antibody, V domains shown)
VH: EVQLVESGGGLVQPGGSLRLSCAASGFIVSRNYMSWVRQAPGKGLEWVSVIYSGGSTFYADSVKGRFTISRHNSKNTLYLQMNSLKAEDTAVYYCARELRGYFDYWGQGTLVTVSS
VL: DIQLTQSPSFLSASVGDRVTITCWASQGISSYLAWYQQKPGKAPKLLIYAASTLQSGVPSRFSGSGSGTEFTLTISSLQPEDFATYYCQLLNSYPYTFGQGTKLEIK
In turn, B3 showed a Binding Signal (absorbance at 450 nm) (absorbance at 450 nm) in test [1] of 2.62. The t½ (dissociative half-life) in test [2] came out at 31.5 min.

B4: mAb11008 (antibody, V domains shown)
VH: EVQLVESGGGLVQPGGSLRLSCAASGFTVSSNYMTWVRQAPGKGLEWVSVIYSGGSTFYADSVKGRFTISRHNSENTLYLQMNSLRAEDTAVYYCARDLAAAGTDYWGQGALVTVSS
VL: B3 VL with E81D, L90H, P95L
For B4, the Binding Signal (absorbance at 450 nm) (absorbance at 450 nm) in test [1] worked out at 2.91. The same molecule had a t½ (dissociative half-life) in test [2] of 2.9 min.
